From US20240317884A1, “METHOD FOR ALLOWING IMMUNE CELLS INFILTRATION IN TUMORS” (Alethia Biotherapeutics Inc., priority 2021, published 2024)
Several values for one entry are separate records, joined by “and”; a condition that tells them apart may be missing. Equal values may be shown once. Entries after “also recorded” stand apart in the source; their conditions may differ.

Legend:
[1] = system: 4T1 mouse mammary carcinoma cells; assay: 4T1 model: count of metastatic lung nodules; assay type: in vivo, Balb/c mice; settings: Balb/c, treatment for 5 weeks (docetaxel 10 mg/kg IP 1X/week; AB-16B5 10 mg/kg IP 2X/week), vs saline control
Method: (§1) Five groups, each consisting of 10 female Balb/c mice were assigned to this study (see Table 5 below). All animals received subcutaneous implantation of 4T1 mouse mammary carcinoma cells in the 4th inguinal mammary gland. Treatment was initiated on the day of implantation (defined as Day 1). Animals from Group 1 (Gr. 1) received IP treatment of saline vehicle control twice a week for the duration of the study. Animals from Group 2 (Gr. 2) received 10 mg/kg of docetaxel weekly for five weeks by IP administration. Animals from Group 3 (Gr. 3) received 10 mg/kg of docetaxel weekly for two weeks and 10 mg/kg of AB-16B5, twice weekly for five weeks. Animals from Group 4 (Gr. 4) received 10 mg/kg of docetaxel weekly and 5 mg/kg of 16B5 twice weekly each over the course of a five weeks treatment. Animals from Group 5 (Gr. 5) received AB-16B5 twice weekly for five weeks. On Day 36, the primary tumors were excised and on Day 37, the animals were sacrificed and the number of grossly visible metastatic nodules on the surface of the lungs was counted.

4T1 primary tumors = assay: 4T1 model: CD45+ immune cells in primary tumors; assay type: in vivo, Balb/c mice; settings: Balb/c, 5-week regimens (Groups 2, 4, 5), primary tumors excised at Day 16
Method: as §1
The primary tumors excised at Day 16 post implantation, were processed with collagenase and hyaluronidase and immune cells were purified by positive selection using magnetic latex beads coated with an anti-CD45 antibody. […]

4T1 lung metastases = assay: 4T1 model: immunohistochemistry of lung metastases; assay type: in vivo; settings: Balb/c mice, orthotopic 4T1; 10 mg/kg IP thrice a week; Day 36
Text: Balb/c mice were orthotopically implanted with 5×10^5 4T1 cells in the 4th mammary fat pad. Animals received IP saline treatment thrice weekly. The primary tumor was surgically removed at Day 16 post-implantation. The animals were sacrificed at Day 36 and the lungs were excised. Tissues were fixed in paraformaldehyde and processed for paraffin embedding. Tissue sections were probed with anti-mouse CD3, anti-mouse CD8 and anti-mouse B220 antibodies. […] Results presented in FIG. 1 indicate that the 4T1 lung metastases create an immune cold microenvironment which prevents the infiltration of B and T lymphocytes in tumors. Delineated regions indicate that CD3 and CD8 T lymphocytes are restricted in the tumor margin as a consequence of EMT.
Animals bearing 4T1 tumors were treated with the AB-16B5 antibody (murine 16B5) thrice a week IP at 10 mg/kg. The primary tumor was surgically removed at Day 16 post-implantation. The animals were sacrificed at Day 36 and the lungs were excised. Tissues were fixed in paraformaldehyde and processed for paraffin embedding. Tissue sections were probed with anti-mouse CD3, anti-mouse CD8 and anti-mouse B220 antibodies.

4T1 tumor cells = assay: INFγ secretion of tumor infiltrating lymphocyte cultures co-cultured with 4T1 cells (ELISA); assay type: cell-based, Balb/c mice; settings: 100,000 lymphocytes from lung metastatic nodules with 100,000 4T1 cells overnight, individual animals, AB-16B5 10 mg/kg IP twice weekly ± docetaxel 10 mg/kg IP weekly
Method: Balb/c mice were orthotopically implanted with 5×10^5 4T1 cells in the 4th mammary fat pad. Animals received intraperitoneal (IP) AB-16B5 (murine 16B5) 10 mg/kg twice weekly in combination with IP docetaxel 10 mg/kg weekly (Group 15: animals 1501, 1502 and 1503) or IP AB-16B5 10 mg/kg twice weekly (Group 25: […]). The primary tumor was surgically removed at Day 16 post-implantation. The animals were sacrificed at Day 36 and the lungs were excised and each visible lung metastasis was carefully dissected. Each visible metastatic nodule, if any, was excised and processed for a rapid expansion of tumor infiltrating lymphocyte protocol. The metastatic nodules were sectioned into small pieces of 2-3 mm edge that were individually grown in 24 well plates containing culture medium supplemented with FBS, IL2, IL7, ITS (1,000 U/mL IL2, 2.0 ng/mL IL7 and 1× insulin-transferrin-selenium cocktail (Gibco 41400-045)).
After three weeks in culture, 100,000 cells were taken from each of the lymphocyte cultures (six cultures corresponding to three animals from Group 15 and three animals from Group 25) and placed in culture with 100,000 4T1 tumor cells. After overnight co-culture, the supernatant was recovered for INFγ quantification by ELISA.

Molecule: CC(=O)O[C@@]12CO[C@@H]1C[C@H](O)[C@@]1(C)C(=O)[C@H](O)C3=C(C)[C@@H](OC(=O)[C@H](O)[C@@H](NC(=O)OC(C)(C)C)c4ccccc4)C[C@@](O)([C@@H](OC(=O)c4ccccc4)[C@H]21)C3(C)C [docetaxel]
- metastatic lung nodules / therapeutic effect on lung metastases [1]: as many metastatic lung nodules as the saline control group; also recorded: relatively ineffective
- CD45+ immune cells in primary tumors (4T1 primary tumors): very few CD45+

B1: murine 16B5: murine anti-clusterin 16B5 antibody used in mouse studies; VL SEQ ID NO:7, VH SEQ ID NO:8 (antibody, V domains shown)
VH: EVQLQQSGAELVKPGASVRLSCTTSGFNIKDIYMHWVKQRPEQGLEWIGRIDPAYGNTKYDPKFQGKATITADTSSNTAYLQLSSLTSEDTAVYYCARRYDTAMDYWGQGTSVTVSS
VL: DIVMSQSPSSLAVSAGEKVTMSCKSSQSLLNSRTRKNYLAWYQQKPGQSPKLLIYWASTRESGVPDRFTGSGSGTDFTLTISSVQAEDLAVYYCKQSYNLWTFGGGTKLEFK
modifications: Murine 16B5 VH; Murine 16B5 VL
- infiltration of lung metastases with T cells (4T1 lung metastases): densely infiltrated with CD3 and CD8 T cells
- lung metastases (number and size) (4T1 lung metastases): fewer and much smaller lung metastases
- plasmocytes penetration in tumors (4T1 lung metastases): evidence of plasmocytes penetration
- metastatic lung nodules / therapeutic effect on lung metastases [1]: less metastatic lung nodules
- CD45+ immune cells in primary tumors (4T1 primary tumors): more immune cells
- INFγ (4T1 tumor cells): 8538.8 pg/mL and 3770.0 pg/mL and 4538.8 pg/mL
